{"source": "patent US20140162285A1", "about": "“Methods of Modulating Vesicular Trafficking” (The General Hospital Corporation, priority 2009, published 2014)", "molecules": {"B1": {"name": "a2N: recombinant N-terminal cytosolic tail, amino acid residues 1-402 of mouse V-ATPase a2-subunit (protein)", "chain": "MGSLFRSESMCLAQLFLQSGTAYECLSALGEKGLVQFRDLNQNVSSFQRKFVGEVKRCEELERILVYLVQEITRADIPLPEGEASPPAPPLKHVLEMQEQLQKLEVELREVTKNKEKLRKNLLELVEYTHMLRVTKTFLKRNVEFEPTYEEFPALENDSLLDYSCMQRLGAKLGFVSGLIQQGRVEAFERMLWRACKGYTIVTYAELDECLEDPETGEVIKWYVFLISFWGEQIGHKVKKICDCYHCHIYPYPNTAEERREIQEGLNTRIQDLYTVLHKTEDYLRQVLCKAAESVCSRVVQVRKMKAIYHMLNMCSFDVTNKCLIAEVWCPEVDLPGLRRALEEGSRESGATIPSFMNTIPTKETPPTLIRTNKFTEGFQNIVDAYGVGSYREVNPALFTII", "modifications": "left off: small tags and cut ends", "notes": "recombinant N-terminal cytosolic tail, amino acid residues 1-402 of mouse V-ATPase a2-subunit"}}, "target": "T1, ARNO(wt) (Homo sapiens, UniProt Q99418)", "T1 construct": "i) 1-400aa, full length ARNO(wt); GST (N); made in house; host or cells: E. coli BL21(DE3)", "T1 sequence (Q99418 1-400)": "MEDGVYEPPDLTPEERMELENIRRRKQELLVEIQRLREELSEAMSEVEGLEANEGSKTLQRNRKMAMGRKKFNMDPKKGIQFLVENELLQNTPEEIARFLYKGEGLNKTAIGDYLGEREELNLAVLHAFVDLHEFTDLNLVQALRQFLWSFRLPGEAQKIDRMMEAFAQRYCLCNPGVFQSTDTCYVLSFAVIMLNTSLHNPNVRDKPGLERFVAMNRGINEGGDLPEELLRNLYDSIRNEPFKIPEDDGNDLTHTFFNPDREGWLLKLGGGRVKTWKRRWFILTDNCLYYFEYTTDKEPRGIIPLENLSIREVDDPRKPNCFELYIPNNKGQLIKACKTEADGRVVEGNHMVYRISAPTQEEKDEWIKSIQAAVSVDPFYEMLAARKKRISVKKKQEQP", "test": "surface plasmon resonance (BIAcore T100) kinetic analysis a2N(wt)/ARNO(wt)", "format": "binding", "excerpt": "6A, Kinetic analysis and estimation of a dissociation constant (KD) for interaction between full-length a2N(wt) and ARNO(wt) proteins. Sensorgrams for the binding of recombinant a2N-6His immobilized as ligand on the sensor chip, with various concentrations of 6His-ARNO as analyte are shown as follows. The responses on the sensorgram are designated in resonance units (RU). […] 6B, Kinetic analysis and estimation of KD for interaction between a2N-01 peptide and Sec7-domain of ARNO. Sensorgrams for the binding of a2N-01 peptide immobilized as ligand on the sensor chip, with various concentrations of Sec7-domain as analyte are shown as follows. The responses on the sensorgram are designated in resonance units (RU).\nAll reagents, including buffers, sensor chips and the amine coupling kit, were obtained from GE Healthcare. For kinetic analysis of the binding of ARNO(wt) with a2N(wt), purified 6His-a2N (5 μg/ml) in 10 mM sodium acetate (pH 4.0) was immobilized at 80 response units (RU) on a CM4 sensor chip using an amine coupling kit according to the manufacturer's instructions. The same kit was used to perform blank immobilization to create a reference surface on the same chip. Samples of purified GST-ARNO(wt) at concentrations ranging from 0.25-4 μM were injected for 6 min over active and reference surfaces at a flow rate of 30 μl/min in NBS-EP, 1 mM DTT running buffer (10 mM Hepes, pH 7.4, 150 mM NaCl, 3 mM EDTA, 0.05% Surfactant P20, 1 mM DTT). For kinetic analysis of the binding of the ARNO Sec7-domain with a2N-01 peptide, neutravidin (10 μg/ml) in 10 mM sodium acetate (pH 5.0) was immobilized at about 1200 RU on two surfaces of a CM4 sensor chip using an amine coupling kit. Following that, biotinylated a2N-01 peptide (50 RU) and amine-PEG3-biotin (25 RU) were irreversibly captured by neutravidin to create active and a reference surfaces, respectively. Purified Sec7-6His recombinant protein was injected for 3.5 min over active and reference surfaces at concentrations ranging from 0.05-1 μM and a flow rate of 100 μl/min in NBS-EP, 1 mM DTT running buffer. Dissociation of the complexes was monitored for 10 min, and then the regeneration of the sensor surfaces was performed using 0.05% SDS with 1-min injection in the running buffer at a 20 μl/min flow rate. […] The dissociation constant (KD) was determined from the kon/koff values. To estimate affinity of interaction the corresponding free energy of binding ΔGbind=RTlnKD was calculated as previously described (Marles et al., Mol Cell 14 (2004) 813-823).\nSpecific concentration-dependent responses were obtained for both interactions. […] Calculated free energies for a2N(wt)/ARNO(wt) and a2N-01/Sec7 binding are −8.86 kcal mol^−1 and −8.81 kcal mol^−1, respectively (Marles et al., Mol Cell 14 (2004) 813-823). […]", "key": {"[1]": {"conditions": "a2N immobilized, ARNO as analyte, 25° C."}}, "data": [{"molecule": "B1", "values": [{"measurement": "Kd", "setting": "a2N immobilized on sensor chip, ARNO as analyte, 25° C., bivalent analyte isotherm, read-out: dissociation constant KD", "result": 313, "unit": "nM"}, {"measurement": "association rate constant (kon)", "setting": "[1]", "result": "4.77×10^3 M^−1S^−1"}, {"measurement": "dissociation rate constant (koff)", "setting": "[1]", "result": "14.95×10^−4 S^−1"}, {"measurement": "calculated free energy of binding", "setting": "ΔGbind=RTlnKD", "result": -8.86, "unit": "kcal/mol"}]}]}
